Assay results: publication doi:10.1101/2024.10.31.621230 (bioRxiv, 2024)

B1: OmpF (natural protein, UniProt P02931 1-362, looked up)
chain: MMKRNILAVIVPALLVAGTANAAEIYNKDGNKVDLYGKAVGLHYFSKGNGENSYGGNGDMTYARLGFKGETQINSDLTGYGQWEYNFQGNNSEGADAQTGNKTRLAFAGLKYADVGSFDYGRNYGVVYDALGYTDMLPEFGGDTAYSDDFFVGRVGGVATYRNSNFFGLVDGLNFAVQYLGKNERDTARRSNGDGVGGSISYEYEGFGIVGAYGAADRTNLQEAQPLGNGKKAEQWATGLKYDANNIYLAANYGETRNATPITNKFTNTSGFANKTQDVLLVAQYQFDFGLRPSIAYTKSKAKDVEGIGDVDLVNYFEVGATYYFNKNMSTYVDYIINQIDSDNKLGVGSDDTVAVGIVYQF
modifications: 35S-methionine
notes: OmpF, the 16-stranded outer membrane protein used as a model substrate; Gunasinghe et al., 2018; Thewasano et al., 2023) for the substrate constructs; source: in vitro translated in rabbit reticulocyte lysate with 35S-methionine, assembled into EMM
B2: LamB (natural protein, UniProt P02943 1-446, looked up)
chain: MMITLRKLPLAVAVAAGVMSAQAMAVDFHGYARSGIGWTGSGGEQQCFQTTGAQSKYRLGNECETYAELKLGQEVWKEGDKSFYFDTNVAYSVAQQNDWEATDPAFREANVQGKNLIEWLPGSTIWAGKRFYQRHDVHMIDFYYWDISGPGAGLENIDVGFGKLSLAATRSSEAGGSSSFASNNIYDYTNETANDVFDVRLAQMEINPGGTLELGVDYGRANLRDNYRLVDGASKDGWLFTAEHTQSVLKGFNKFVVQYATDSMTSQGKGLSQGSGVAFDNEKFAYNINNNGHMLRILDHGAISMGDNWDMMYVGMYQDINWDNDNGTKWWTVGIRPMYKWTPIMSTVMEIGYDNVESQRTGDKNNQYKITLAQQWQAGDSIWSRPAIRVFATYAKWDEKWGYDYTGNADNNANFGKAVPADFNGGSFGRGDSDEWTFGAQMEIWW
modifications: 35S-methionine
notes: LamB, the 18-stranded outer membrane protein used as a model substrate; Gunasinghe et al., 2018; Thewasano et al., 2023) for the substrate constructs; also called trimeric-LamB; source: in vitro translated in rabbit reticulocyte lysate with 35S-methionine, assembled into EMM

Target: the molecule itself
Test: native gel or EMSA; EMM assembly assay: 35S-labelled in vitro translated substrate incubated with EMM at 30°C for 15, 45 or 90 min, EMM solubilised with 1.5% DDM, BN-PAGE, radio-imaging; homotrimer at approximately 160 kDa

Protein | stoichiometry N
B1 | 3
B2 | 3
